Measured values: US5587468

Target: HIV-1 integrase (Human immunodeficiency virus 1 (BH10)) (UniProt P03366)
Assay: FP filter
[1] = 50 mM NaCl, stated about same Kd as 30N RNA
[2] = nitrocellulose filter, 250 mM NaCl, printed as 20x10^-6, data not shown

U5 21-mer ds
Kd [1]: 25 nM
Kd [2]: > 20000 nM

U5 21-mer ss
Kd [1]: 25 nM
Kd [2]: > 20000 nM
